According to publication PMC4891050, “A novel small-molecule compound targeting CD147 inhibits the motility and invasion of hepatocellular carcinoma cells” (Oncotarget, 2016):
Changes are numbered by the printed parent chain. Names may count otherwise. One block for each binder: values may come before it.

How the values were obtained:
[1] = biological target: T1, wild-type CD147 extracellular portion (residues 22-205) tagged with 6 x His, P35613; test: native gel or EMSA; non-denaturing SDS-PAGE: 5 ug purified protein with DMSO or AC-73 (0, 0.1, 0.25 or 0.5 uM), 5x Laemmli sample buffer lacking SDS, 10% SDS-PAGE without boiling, immunoblot with anti-His6; monomer and dimer bands; details: remark: other sources report otherwise
T1 chain: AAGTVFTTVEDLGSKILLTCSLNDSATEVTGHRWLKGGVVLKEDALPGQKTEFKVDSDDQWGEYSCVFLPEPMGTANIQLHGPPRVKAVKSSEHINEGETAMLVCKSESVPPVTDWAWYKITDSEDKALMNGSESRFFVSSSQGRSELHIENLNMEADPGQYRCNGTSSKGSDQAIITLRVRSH

[2] = biological target: the molecule itself; test: as above

stoichiometry N [1]: 2
B1: wild-type CD147 extracellular portion (residues 22-205) tagged with 6 x His, P35613-2 22-205 (domain or fragment)
chain: T1 chain

B2: CD147 mutant E73A, extracellular portion tagged with 6 x His (domain or fragment, UniProt P35613-2 22-205, looked up)
chain: T1 chain with E52A
notes: CD147 (EMMPRIN, HAb18G/CD147), extracellular portion, residues 22-205 as for CD147wt, with E73A; also called CD147mt; CD147mts; source: prokaryotic expression system, purified
binding result [2]: binds

B3: CD147 mutant E64A, extracellular portion tagged with 6 x His (domain or fragment, UniProt P35613-2 22-205, looked up)
chain: T1 chain with E43A
notes: CD147 (EMMPRIN, HAb18G/CD147), extracellular portion, residues 22-205 as for CD147wt, with E64A; also called CD147mt; CD147mts; source: prokaryotic expression system, purified
binding result [2]: binds
